Results from PMC5479831, “Semi-rational engineering of a thermostable aldo–keto reductase from Thermotoga maritima for synthesis of enantiopure ethyl-2-hydroxy-4-phenylbutyrate (EHPB)” (Scientific Reports, 2017).

B1: Tm1743 (Thermotoga maritima MSB8) (protein)
chain: MLYKELGRTGEEIPALGLGTWGIGGFETPDYSRDEEMVELLKTAIKMGYTHIDTAEYYGGGHTEELIGKAIKDFRREDLFIVSKVWPTHLRRDDLLRSLENTLKRLDTDYVDLYLIHWPNPEIPLEETLSAMAEGVRQGLIRYIGVSNFDRRLLEEAISKSQEPIVCDQVKYNIEDRDPERDGLLEFCQKNGVTLVAYSPLRRTLLSEKTKRTLEEIAKNHGATIYQIMLAWLLAKPNVVAIPKAGRVEHLRENLKATEIKLSEEEMKLLDSLG
B2: Tm1743 (Thermotoga maritima MSB8; W118E/W21L) (protein)
chain: MLYKELGRTGEEIPALGLGTLGIGGFETPDYSRDEEMVELLKTAIKMGYTHIDTAEYYGGGHTEELIGKAIKDFRREDLFIVSKVWPTHLRRDDLLRSLENTLKRLDTDYVDLYLIHEPNPEIPLEETLSAMAEGVRQGLIRYIGVSNFDRRLLEEAISKSQEPIVCDQVKYNIEDRDPERDGLLEFCQKNGVTLVAYSPLRRTLLSEKTKRTLEEIAKNHGATIYQIMLAWLLAKPNVVAIPKAGRVEHLRENLKATEIKLSEEEMKLLDSLG
B3: Tm1743 (Thermotoga maritima MSB8; W118H/W21L) (protein)
chain: MLYKELGRTGEEIPALGLGTLGIGGFETPDYSRDEEMVELLKTAIKMGYTHIDTAEYYGGGHTEELIGKAIKDFRREDLFIVSKVWPTHLRRDDLLRSLENTLKRLDTDYVDLYLIHHPNPEIPLEETLSAMAEGVRQGLIRYIGVSNFDRRLLEEAISKSQEPIVCDQVKYNIEDRDPERDGLLEFCQKNGVTLVAYSPLRRTLLSEKTKRTLEEIAKNHGATIYQIMLAWLLAKPNVVAIPKAGRVEHLRENLKATEIKLSEEEMKLLDSLG
B4: Tm1743 (Thermotoga maritima MSB8; W21S/W86E) (protein)
chain: MLYKELGRTGEEIPALGLGTSGIGGFETPDYSRDEEMVELLKTAIKMGYTHIDTAEYYGGGHTEELIGKAIKDFRREDLFIVSKVEPTHLRRDDLLRSLENTLKRLDTDYVDLYLIHWPNPEIPLEETLSAMAEGVRQGLIRYIGVSNFDRRLLEEAISKSQEPIVCDQVKYNIEDRDPERDGLLEFCQKNGVTLVAYSPLRRTLLSEKTKRTLEEIAKNHGATIYQIMLAWLLAKPNVVAIPKAGRVEHLRENLKATEIKLSEEEMKLLDSLG
B5: Tm1743 (Thermotoga maritima MSB8; W21S/W86N) (protein)
chain: MLYKELGRTGEEIPALGLGTSGIGGFETPDYSRDEEMVELLKTAIKMGYTHIDTAEYYGGGHTEELIGKAIKDFRREDLFIVSKVNPTHLRRDDLLRSLENTLKRLDTDYVDLYLIHWPNPEIPLEETLSAMAEGVRQGLIRYIGVSNFDRRLLEEAISKSQEPIVCDQVKYNIEDRDPERDGLLEFCQKNGVTLVAYSPLRRTLLSEKTKRTLEEIAKNHGATIYQIMLAWLLAKPNVVAIPKAGRVEHLRENLKATEIKLSEEEMKLLDSLG

biological target: T1, Tm1743 (Thermotoga maritima, UniProt Q9X265); experiment: X-ray crystal structure, […] Å; settings: co-crystallised, protein:NADP+ 1:1.5 molar; cofactor binding site
T1 construct: gene TM_1743

How did the “X-ray crystal structure, 2.0 Å” value turn out when NC(=O)c1ccc[n+]([C@@H]2O[C@H](COP(=O)(O)OP(=O)(O)OC[C@H]3O[C@@H](n4cnc5c(N)ncnc54)[C@H](OP(=O)(O)O)[C@@H]3O)[C@@H](O)[C@H]2O)c1 [NADP^+] was run?
Its value is “we crystallized Tm1743 in complex with the cofactor NADP^+”.

substrate: CCOC(=O)C(=O)CCc1ccccc1; experiment: purified protein; format: biochemical, Thermotoga maritima; settings: apparent, 0.25 mM NADPH, 50 mM potassium phosphate pH 6.5, 35 °C, 30 mM DMSO

Which results are given for B1?
Km: 1100 ± 40 µM; kcat: 1.96 ± 0.02 s⁻¹; kcat/Km: 1780 ± 30 M⁻¹ s⁻¹

With B2 as the molecule, how does the Km read?
Its Km is 10530 ± 100 µM.

And the kcat?
The kcat was 1.98 ± 0.02 s⁻¹.

What about the kcat/Km of the same molecule?
Its kcat/Km is 190 ± 10 M⁻¹ s⁻¹.

With B3 as the molecule, how does the Km read?
Its Km is 15980 ± 200 µM.

What about the kcat of the same molecule?
Its kcat is 1.98 ± 0.01 s⁻¹.

What about the kcat/Km of the same molecule?
Its kcat/Km is 120 ± 10 M⁻¹ s⁻¹.

What does the source list for B4?
Km: 1250 ± 20 µM; kcat: 1.01 ± 0.01 s⁻¹; kcat/Km: 810 ± 20 M⁻¹ s⁻¹

What does the source list for B5?
Km: 1620 ± 20 µM; kcat: 0.84 ± 0.01 s⁻¹; kcat/Km: 510 ± 20 M⁻¹ s⁻¹
